Biological target: SARS-CoV-2 spike receptor-binding domain (RBD), amino acids 333 to 529, bacteria-expressed and refolded (SARS-CoV-2, wild type (parental), UniProt P0DTC2)
Test: SPR
Conditions: both partners purified

B1: Sybody Sb68 (VHH)
VHH: QVQLVESGGGSVQAGGSLRLSCAASGSISSITYLGWFRQAPGKEREGVAALITVNGHTYYADSVKGRFTVSLDNAKNTVYLQMNSLKPEDTALYYCAAAAWGYAWPLHQDDYWYWGQGTQVTVSA
Kd: 63 nM

Source: article PMC8219104 (Research Square, 2021)
